# In IntAct's records for PubMed 16461910:
# Experiments:
# dpo3b_bacsu dnaN = dpo3b_bacsu dnaN (UniProt P05649)
# dnaa_bacsu dnaA = dnaa_bacsu dnaA (UniProt P05648)
# acub_bacsu acuB = acub_bacsu acuB (UniProt P39066)
# tlpa_bacsu tlpA = tlpa_bacsu tlpA (UniProt P39216)
# Chain of tlpa_bacsu tlpA (P39216 whole entry): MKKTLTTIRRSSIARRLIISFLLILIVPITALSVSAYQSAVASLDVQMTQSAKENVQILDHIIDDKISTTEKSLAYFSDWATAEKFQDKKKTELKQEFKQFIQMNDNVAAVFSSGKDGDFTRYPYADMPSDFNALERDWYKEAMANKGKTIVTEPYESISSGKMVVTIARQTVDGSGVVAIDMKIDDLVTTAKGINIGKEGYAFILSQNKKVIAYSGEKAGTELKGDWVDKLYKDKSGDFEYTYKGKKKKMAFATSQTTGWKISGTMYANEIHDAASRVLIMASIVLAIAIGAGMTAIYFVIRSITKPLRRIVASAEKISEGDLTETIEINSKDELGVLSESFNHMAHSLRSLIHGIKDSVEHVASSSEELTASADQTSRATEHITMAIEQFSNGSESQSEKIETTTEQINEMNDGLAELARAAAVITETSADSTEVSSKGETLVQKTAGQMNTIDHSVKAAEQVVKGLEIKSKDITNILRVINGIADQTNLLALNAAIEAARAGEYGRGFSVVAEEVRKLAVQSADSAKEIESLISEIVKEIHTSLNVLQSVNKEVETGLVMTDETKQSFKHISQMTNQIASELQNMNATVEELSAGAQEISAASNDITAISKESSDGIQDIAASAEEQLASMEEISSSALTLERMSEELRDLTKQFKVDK
# Chain of dnaa_bacsu dnaA (P05648 whole entry): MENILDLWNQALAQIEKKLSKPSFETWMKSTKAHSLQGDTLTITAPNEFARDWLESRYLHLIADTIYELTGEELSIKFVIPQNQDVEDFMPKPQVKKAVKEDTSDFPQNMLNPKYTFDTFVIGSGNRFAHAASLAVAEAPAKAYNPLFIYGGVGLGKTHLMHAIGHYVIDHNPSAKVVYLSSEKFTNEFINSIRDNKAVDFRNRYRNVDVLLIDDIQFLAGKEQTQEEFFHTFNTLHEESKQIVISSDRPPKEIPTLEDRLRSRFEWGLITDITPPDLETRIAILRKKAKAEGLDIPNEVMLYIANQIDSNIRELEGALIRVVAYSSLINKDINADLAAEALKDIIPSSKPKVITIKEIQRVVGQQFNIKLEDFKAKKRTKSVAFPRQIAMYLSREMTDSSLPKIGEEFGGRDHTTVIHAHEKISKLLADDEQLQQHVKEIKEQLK
# Chain of dpo3b_bacsu dnaN (P05649 whole entry): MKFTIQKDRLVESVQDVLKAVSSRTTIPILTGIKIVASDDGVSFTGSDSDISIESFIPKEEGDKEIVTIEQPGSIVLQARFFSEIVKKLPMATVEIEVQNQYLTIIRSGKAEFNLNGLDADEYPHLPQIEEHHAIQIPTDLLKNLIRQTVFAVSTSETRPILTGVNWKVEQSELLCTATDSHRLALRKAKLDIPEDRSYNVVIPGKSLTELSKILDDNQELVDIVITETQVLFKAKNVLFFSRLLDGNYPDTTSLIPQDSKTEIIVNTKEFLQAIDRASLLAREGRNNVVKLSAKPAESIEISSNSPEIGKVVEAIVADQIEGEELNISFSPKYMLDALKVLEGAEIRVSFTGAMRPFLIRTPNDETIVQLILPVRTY
# Chain of acub_bacsu acuB (P39066 whole entry): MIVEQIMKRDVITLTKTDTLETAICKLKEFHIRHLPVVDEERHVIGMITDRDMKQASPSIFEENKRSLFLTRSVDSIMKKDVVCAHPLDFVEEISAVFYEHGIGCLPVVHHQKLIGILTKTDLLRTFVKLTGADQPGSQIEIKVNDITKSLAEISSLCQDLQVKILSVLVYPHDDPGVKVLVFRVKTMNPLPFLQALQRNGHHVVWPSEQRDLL
effect of a mutation on the interaction (dpo3b_bacsu dnaN),effect of a mutation on the interaction (dnaa_bacsu dnaA),effect of a mutation on the interaction (acub_bacsu acuB),effect of a mutation on the interaction (tlpa_bacsu tlpA),Substance
disrupting interaction strength,,,,"Replication initiation control protein YabA (Bacillus subtilis), P37542 L110P"
,disrupting interaction strength,,,"Replication initiation control protein YabA (Bacillus subtilis), P37542 N85D"

# Second part, the substance before the results:
Substance,effect of a mutation on the interaction (dpo3b_bacsu dnaN),effect of a mutation on the interaction (dnaa_bacsu dnaA),effect of a mutation on the interaction (acub_bacsu acuB),effect of a mutation on the interaction (tlpa_bacsu tlpA)
"Replication initiation control protein YabA (Bacillus subtilis), P37542 V99A",disrupting interaction strength,,,
"Replication initiation control protein YabA (Bacillus subtilis), P37542 L86P",,disrupting interaction strength,,
"Replication initiation control protein YabA (Bacillus subtilis), P37542 L27A",disrupting interaction strength,disrupting interaction strength,disrupting interaction strength,disrupting interaction strength
